US20200255508A1 (AbbVie / Abbott, published 2020)
Substitutions are numbered along the chain they refer to. Like-named read-outs stand apart in the source and are kept apart here.

Columns and labels:
[1] = target: T1, mouse DLL4 on the cell surface (mouse, UniProt Q9JI71 27-686); assay: competition FACS, competitor huNotch-1
T1 construct: whole, on cells; also called HEK293-mDLL4; mDLL4-293G
Procedure: (§1) Notch blocking assay: Briefly, stable cell lines overexpressing cell-surface DLL4 were harvested from tissue culture flasks and re-suspended in phosphate buffered saline (PBS) containing 1% bovine serum albumin and 1 mM CaCl₂ (FACS buffer). HEK293-hDLL4 or HEK293-mDLL4 cells were dispensed into 96-well plate (v-bottom) at 1.5×10⁵ cells/well in FACS buffer. […] After washing the cells two times with FACS buffer, 50 μL of R-phycoerythrin-conjugated streptavidin (1:150 dilution in FACS buffer) (Jackson ImmunoResearch, West Grove, Pa., US, catalog no. 016-110-084) were added. Following an incubation on ice (4° C., 60 minutes), cells were washed three times and resuspended in FACS buffer. Fluorescence was measured using a Becton Dickinson FACSCalibur-HTS (Becton Dickinson, San Jose. Calif.).

[2] = target: T2, human DLL4 on the cell surface (human, UniProt Q9NR61 27-685); assay: competition FACS, competitor huNotch-1
T2 construct: whole, on cells; also called HEK293-hDLL4; hDLL4-293G
Procedure: as §1

[3] = target: T3, human DLL4 extracellular domain (human, UniProt Q9NR61 27-529); assay: competition ELISA, competitor huNotch-1
T3 construct: extracellular domain; coated on plates in the sVEGFR1 assay; also called huDLL4 ECD; Human DLL4 ECD
Procedure: (§2) Plates were then washed 3 times with wash buffer (PBS, 0.05% Tween-20) and blocked with 200 μl/well blocking buffer (D-PBS, 1% BSA, 1 mM CaCl₂, 0.05% Tween-20) for 1 hour at 25° C. […] Assay plates were washed after blocking, and incubated with DLL4/antibody mixtures (100 μl/well, 1 hour at 25° C. with shaking). […] After a final wash, plates were developed using 100 μl/well substrate (TMB Sigma # T8665), and the reaction was stopped after an 8-minute incubation at 25° C. (for muDLL4 ELISA) and after 20 minute incubation at 25° C. (for huDLL4 ELISA) using 100 μl/well 1N HCl, and the absorbance was read at 450 nm.

[4] = target: T4, mouse DLL4 extracellular domain (mouse, UniProt Q9JI71 27-532); assay: competition ELISA, competitor huNotch-1
T4 construct: extracellular domain; also called muDLL4 ECD; Mouse DLL4 ECD
T4 sequence (Q9JI71 27-532): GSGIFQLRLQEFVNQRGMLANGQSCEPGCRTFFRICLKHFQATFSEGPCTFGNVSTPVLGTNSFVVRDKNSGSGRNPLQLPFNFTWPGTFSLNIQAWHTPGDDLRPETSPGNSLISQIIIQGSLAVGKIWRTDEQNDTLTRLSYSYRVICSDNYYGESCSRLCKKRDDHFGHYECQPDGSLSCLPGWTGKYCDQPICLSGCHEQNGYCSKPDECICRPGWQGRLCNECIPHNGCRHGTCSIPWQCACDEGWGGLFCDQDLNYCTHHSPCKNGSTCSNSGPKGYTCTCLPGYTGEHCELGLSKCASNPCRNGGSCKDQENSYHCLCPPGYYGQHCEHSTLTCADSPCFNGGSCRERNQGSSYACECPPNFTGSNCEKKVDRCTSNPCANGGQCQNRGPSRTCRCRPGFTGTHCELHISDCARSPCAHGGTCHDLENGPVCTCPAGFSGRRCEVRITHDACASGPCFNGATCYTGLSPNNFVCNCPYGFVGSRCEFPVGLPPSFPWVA
Procedure: as §2

[5] = target: T5, mouse DLL4-his (mouse, UniProt Q9JI71 27-532); assay: ELISA on DLL4-his
T5 construct: extracellular domain; not shown: his tag
T5 sequence (Q9JI71 27-532): as above

[6] = target: T6, human DLL4-his (human, UniProt Q9NR61 27-529); assay: ELISA on DLL4-his
T6 construct: extracellular domain
Procedure: (§3) After the final wash, plates were incubated with 100 μl/well ELISA substrate (Sigma # T8665). The reaction was stopped after 8 minutes at 25° C. with 100 μl/well 1N HCl and the absorbance was read at 450 nm. Data were analyzed using Graphpad Prism software and EC50 values were reported.

[7] = target: T1, mouse DLL4 on the cell surface; assay: competition FACS, competitor huNotch-1; remark: listed apart in the source
Procedure: as §1

[8] = target: T2, human DLL4 on the cell surface; assay: competition FACS, competitor huNotch-1; remark: listed apart in the source
Procedure: as §1

[9] = target: T2, human DLL4 on the cell surface; assay: FACS on DLL4 cells
Procedure: (§4) Stable cell lines overexpressing cell-surface DLL4 were harvested from tissue culture flasks, washed four times and resuspended in phosphate buffered saline (PBS) containing 1% bovine serum albumin and 1 mM CaCl₂ (FACS buffer), 1.5×10³ cells were incubated with antibodies at various concentrations in FACS buffer for 60 minutes on ice. Cells were washed twice and 50 μL of R-phycoerythrin-conjugated anti-rat IgG. […] Following an incubation on ice (4° C., 60 minutes), cells were washed three times and resuspended in FACS buffer. Fluorescence was measured using a Becton Dickinson FACSCalibur-HTS (Becton Dickinson, San Jose. Calif., US). Data were analyzed using Graphpad Prism software and EC₅₀ values were reported as the concentration of antibody to achieve 50% of maximal DLL4 antibodies binding to DLL4 expressing cells.

[10] = target: T3, human DLL4 extracellular domain; assay: competition ELISA, competitor huNotch-1; remark: listed apart in the source
Procedure: as §2

[11] = target: T4, mouse DLL4 extracellular domain; assay: competition ELISA, competitor huNotch-1; remark: listed apart in the source
Procedure: as §2

[12] = target: T3, human DLL4 extracellular domain; assay: Biacore SPR
Procedure: (§5) The BIACORE® surface plasmon resonance assay (Biacore, Inc., Piscataway, N.J., US) determines the affinity of antibodies with kinetic measurements of on-rate and off-rate constants. Binding of DLL4 antibodies to a purified recombinant DLL4 extracellular domain is determined by surface plasmon resonance-based measurements with a Biacore® instrument (either a Biacore 2000, Biacore 3000, or Biacore T100, GE Healthcare, Piscataway, N.J. US) using running buffer HBS-EPB (10 mM HEPES [pH 7.4], 150 mM NaCl, 3 mM EDTA, 0.1 mg/ml BSA and 0.005% surfactant P20) at 25° C. For example, approximately 9000 RU of goat anti-human Fc specific polyclonal antibody (Thermo Fisher Scientific Inc., Rockford, Ill., US) diluted in 10 mM sodium acetate (pH 4.5) is directly immobilized across a CM5 research grade biosensor chip using a standard amine coupling kit according to manufacturer's instructions and procedures at 25 μg/ml. Unreacted moieties on the biosensor surface are blocked with ethanolamine. For kinetic analysis, rate equations derived from the 1:1 Langmuir binding model are fitted simultaneously to multiple antigen injections (using global fit analysis) with the use of Scrubber 2 (BioLogic Software). […] The equilibrium dissociation constant KD (M) of the reaction between antibodies and the target antigen is then calculated from the kinetic rate constants by the following formula: KD=Koff/Kₒₙ. Binding is recorded as a function of time and kinetic rate constants are calculated. In this assay, on-rates as fast as 10⁶ M⁻¹s⁻¹ and off-rates as slow as 10⁻⁶ s⁻¹ can be measured.

[13] = target: T4, mouse DLL4 extracellular domain; assay: Biacore SPR
Procedure: as §5

[14] = target: T1, mouse DLL4 on the cell surface; assay: FACS on DLL4 cells (*historic data)
[15] = target: T5, mouse DLL4-his; assay: ELISA on DLL4-his; remark: listed apart in the source
Procedure: as §3

[16] = target: T6, human DLL4-his; assay: ELISA on DLL4-his; remark: listed apart in the source
Procedure: as §3

[17] = target: T3, human DLL4 extracellular domain; assay: Biacore SPR; remark: listed apart in the source
Procedure: as §5

[18] = target: T4, mouse DLL4 extracellular domain; assay: Biacore SPR; remark: listed apart in the source
Procedure: as §5

[19] = target: T1, mouse DLL4 on the cell surface; assay: FACS on DLL4 cells
Procedure: as §4

[20] = target: T2, human DLL4 on the cell surface; assay: FACS on DLL4 cells; remark: listed apart in the source
Procedure: as §4

[21] = target: T3, human DLL4 extracellular domain; assay: competition ELISA, competitor huNotch-1; remark: listed apart in the source
Procedure: as §2

[22] = target: T2, human DLL4 on the cell surface; assay: FACS on DLL4 cells; remark: listed apart in the source
Procedure: as §4

[23] = target: T3, human DLL4 extracellular domain; assay: Biacore SPR; remark: listed apart in the source
Procedure: (§6) Binding of DLL4 antibodies to a purified recombinant DLL4 extracellular domain is determined by surface plasmon resonance-based measurements with a Biacore® instrument (either a Biacore 2000, Biacore 3000, or Biacore T100, GE Healthcare, Piscataway, N.J. US) using running buffer HBS-EPB (10 mM HEPES [pH 7.4], 150 mM NaCl, 3 mM EDTA, 0.1 mg/ml BSA and 0.005% surfactant P20) at 25° C. For example, approximately 9000 RU of goat anti-human Fc specific polyclonal antibody (Thermo Fisher Scientific Inc., Rockford, Ill., US) diluted in 10 mM sodium acetate (pH 4.5) is directly immobilized across a CM5 research grade biosensor chip using a standard amine coupling kit according to manufacturer's instructions and procedures at 25 μg/ml. Unreacted moieties on the biosensor surface are blocked with ethanolamine. For kinetic analysis, rate equations derived from the 1:1 Langmuir binding model are fitted simultaneously to multiple antigen injections (using global fit analysis) with the use of Scrubber 2 (BioLogic Software). […] The equilibrium dissociation constant KD (M) of the reaction between antibodies and the target antigen is then calculated from the kinetic rate constants by the following formula: KD=Koff/Kₒₙ. Binding is recorded as a function of time and kinetic rate constants are calculated. In this assay, on-rates as fast as 10⁶ M⁻¹s⁻¹ and off-rates as slow as 10⁻⁶ s⁻¹ can be measured.

[24] = target: T4, mouse DLL4 extracellular domain; assay: Biacore SPR; remark: listed apart in the source
Procedure: as §6

[25] = target: T7, rat DLL4 extracellular domain (rat, UniProt D3ZHH1 28-530); assay: Biacore SPR
T7 construct: extracellular domain; also called ratDLL4 ECD
T7 sequence (D3ZHH1 28-530): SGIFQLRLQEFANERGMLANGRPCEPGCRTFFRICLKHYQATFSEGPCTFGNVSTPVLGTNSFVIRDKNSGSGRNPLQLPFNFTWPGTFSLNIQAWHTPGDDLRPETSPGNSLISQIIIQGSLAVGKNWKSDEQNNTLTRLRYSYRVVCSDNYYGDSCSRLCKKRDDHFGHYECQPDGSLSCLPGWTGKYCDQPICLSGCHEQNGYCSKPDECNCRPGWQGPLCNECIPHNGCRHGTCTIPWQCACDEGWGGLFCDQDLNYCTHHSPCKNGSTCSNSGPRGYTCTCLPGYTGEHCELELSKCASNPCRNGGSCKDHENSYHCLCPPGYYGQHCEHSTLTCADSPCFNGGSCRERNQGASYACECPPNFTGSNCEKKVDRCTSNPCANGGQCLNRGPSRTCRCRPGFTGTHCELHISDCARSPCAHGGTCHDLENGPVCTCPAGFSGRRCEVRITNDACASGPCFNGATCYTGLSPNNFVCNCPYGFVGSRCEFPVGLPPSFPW
Procedure: as §6

[26] = target: T3, human DLL4 extracellular domain; assay: capture ELISA
Procedure: ELISA plates were washed 3 times with wash buffer (PBS, 0.05% Tween-20) and then blocked with 200 ml/well blocking buffer (D-PBS, 1% BSA, 1 mM CaCl₂, 0.05% Tween-20) for 1 hour at 25° C. Plates were washed 3 times and incubated with 100 μl/well DLL4 antibodies (0.0001-100 nM, 10-fold serial dilution in blocking buffer) for 1 hour at 25° C., and then washed again 3 times. […] The reaction was stopped after 2 minutes at 25° C. with 100 μl/well 2 N H2SO₄ and the absorbance was read at 450 nm. Data were analyzed using Graphpad Prism software and EC₅₀ values were reported.

[27] = target: T3, human DLL4 extracellular domain; assay: cell-based or functional assay
[28] = target: T2, human DLL4 on the cell surface; assay: cell-based or functional assay
[29] = target: T2, human DLL4 on the cell surface; assay: competition FACS, competitor huNotch-1; remark: listed apart in the source
Procedure: as §1

[30] = target: T1, mouse DLL4 on the cell surface; assay: FACS on DLL4 cells; remark: listed apart in the source
Procedure: as §4

[31] = target: T3, human DLL4 extracellular domain; assay: Biacore SPR (*historic data); historic data, not from the same run as the other cells

T1 sequence (Q9JI71 27-686): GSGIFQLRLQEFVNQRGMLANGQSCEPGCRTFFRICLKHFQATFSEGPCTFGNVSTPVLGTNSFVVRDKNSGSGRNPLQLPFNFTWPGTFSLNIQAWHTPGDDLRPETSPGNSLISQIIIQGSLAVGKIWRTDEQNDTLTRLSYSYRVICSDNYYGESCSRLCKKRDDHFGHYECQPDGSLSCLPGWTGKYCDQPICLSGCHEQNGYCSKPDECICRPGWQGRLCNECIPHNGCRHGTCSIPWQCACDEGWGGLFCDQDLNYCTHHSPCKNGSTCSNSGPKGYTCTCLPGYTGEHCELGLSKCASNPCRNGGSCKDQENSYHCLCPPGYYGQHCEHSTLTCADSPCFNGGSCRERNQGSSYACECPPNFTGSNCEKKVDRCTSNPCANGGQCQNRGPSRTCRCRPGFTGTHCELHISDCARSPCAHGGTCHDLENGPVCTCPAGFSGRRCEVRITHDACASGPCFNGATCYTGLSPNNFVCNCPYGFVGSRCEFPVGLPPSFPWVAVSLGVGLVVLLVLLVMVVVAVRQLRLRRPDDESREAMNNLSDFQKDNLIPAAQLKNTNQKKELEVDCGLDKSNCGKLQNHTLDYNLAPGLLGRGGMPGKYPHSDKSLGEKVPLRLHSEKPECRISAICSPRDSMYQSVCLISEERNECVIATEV

B1: E9.1 (antibody, human IgG1, V domains shown)
VH: EVQLQESGPGLVKPSETLSLTCTVSGGSISSSSYYWGWIRQPPGKGLEWIGDIYYTGSTYYNPSLKSRVTISVDTSKNQFSLKLSSVTAADTAVYYCAREDVILRGGSDYWGQGTLVTVSS
VL: SYELTQPPSVSVSPGQTASITCSGQRLGDKYASWYQQKPGQSPVLVIYEDSKRPSGIPERFSGSNSGDTATLTISGTQPMDEADYYCQAWDRDTGVFGYGTRVTVLG
IC50 [1]: 1.06 nM
IC50 [2]: 1.62 nM
IC50 [3]: 2.2 nM
IC50 [4]: 5.85 nM
EC50 [5]: 0.04 nM
EC50 [6]: 0.03 nM
IC50 [7]: 1.02 nM
IC50 [8]: 4.55 nM
Kd [9]: 0.35 nM
IC50 [10]: 2.5 nM
IC50 [11]: 2.5 nM
Kd [12]: 0.52 nM
Kd [13]: 1.1 nM
Kd [14]: 1.6 nM
EC50 [15]: 0.34 nM
EC50 [16]: 0.29 nM
Kd [17]: 2.38 nM
Kd [18]: 12.8 nM
Kd [19]: 1.66 nM
Kd [20]: 3.62 nM

B2: A10 (antibody, IgG1, V domains shown)
VH: EVQLLESGGGLVKSGGSLRLSCAASGFTFRSHWMSWVRQAPGKGLEWVAIISYDGSNKYSADSVKGRFTISRDNSKNTLYLQLNSLRAEDTAVYYCAKAGGGNVGFDIWGQGTMVTVSS
VL: LPVLTQPPSVSVSPGQTASITCSADKLGTKYVSWYQQKPGQSPVLVIYQDAKRPSGIPERFSGSNSGNTATLTISGTQTMDEADYLCQSWDRSDVVFGGGTKVTVL
notes: also called anti-DLL4 PROfusion antibody A10
IC50 [21]: 2.6 nM
EC50 [22]: 0.93 nM
Kd [23]: 6.68 nM
koff [23]: 0.00015 s⁻¹
kon [23]: 22000 M⁻¹ s⁻¹
binding result [24]: no binding (tested: 900 nM DLL4)
binding result [25]: no binding (tested: 900 nM DLL4)
EC50 [26]: 0.17 nM
sVEGFR1 Inhibition (IC50, nM) DLL4 ECD/EaHy cells, hu [27]: 1.5 nM
Inhibition of Notch activation via huDLL4 cells, coculture (IC50, nM) [28]: 7.3 nM
IC50 [29]: 4.4 nM

B3: E9-SE1 (antibody, V domains shown)
VH: EVQLVESGGGLVQPGGSLRLSCAVSGGSISSSSYYWGWIRQAPGKGLEWIGDIYYTGSTYYNPSLKSRVTISVDTSKNSFYLQMNSLRAEDTAVYYCAREDVILRGGSDYWGQGTLVTVSS
VL: B1 VL with S1L, E3V, P79T, Y86L, Y99G, R102K
notes: full-length human IgG1
IC50 [7]: 1.71 nM
IC50 [8]: 8.51 nM
Kd [30]: 1.34 nM
Kd [9]: 3.45 nM
IC50 [10]: 2.7 nM
IC50 [11]: 2.9 nM
Kd [31]: 15.2 nM
EC50 [15]: 0.19 nM
EC50 [16]: 0.16 nM
Kd [18]: 12.8 nM
